B1: TbGH2 (Thermus brockianus) (protein)
chain: RLKSALFLAHPAGEPEALPEEGWREVALPHQWTLEGLEAEVGWYRLTLPEGGPRRFLRSLGDYYQEAWLEGRFLGRHEGYFFPWLLELPPGKELYLRVSAPKEPLGQWPRFKRQIKGVLGQHDCRPGGVSPRGQERGTGGLWGGVEVVFREEVALLHLTHRLHPRPGGWRLLVRLLLDAPRPFAERVLLRLSPENFPGEAWTQEVGLRGDAGRGYREVVWDLPEMPLWEVWERGFPHLFRLEAELAQAQVSAPLGFRTVAWDEEGWLLLNGRRLFLRGTNHIPTQWLAAYSQALAEKDVALLKEAGLNAVRVHAHLTHPVFYEVCDREGVLVWQDFPLQWGYAPDEAFAEEAVRQVRAMVEHYGAHPSIYLWCAQNEPTHNRHALGPLLAAELRAQDPSRLVKEASDFREHPYPGWYWGHFRDFLALPGAPLPSEFGAQALPRAELLRRVLGEAAWPPKWEVWAYHNFQPHETFRVAGVEMGTSLESFVENSQAYQARLLSFAIHVYRRAKGKVVGYFQFLFAEPWEGITWAVLDVERIPKKGFHALKEASSPVLLSLVPYRERLEVGGVPLWEAWLVNDLERPLTLRVALALEGPVALPLWEGEVAVAGGEVRRFFSLGELWESPWEAQERLMRVAEALRRLPPGRYRLVGEAWEGERLWSRQVVELVYLEPLVPPGEAW

Legend:
Test in all cases: purified protein
[1] = system: T1, O=[N+]([O-])c1ccc(O[C@@H]2O[C@H](CO)[C@@H](O)[C@H](O)[C@H]2O)cc1; assay type: biochemical, Thermus antranikianii; details: 90°C, 20 mM citrate buffer pH 6.5, 0-10 mM substrate, 10 min
T1 construct: recombinant, pQE-80L (His-tag vector) in E. coli BL21 Star(DE3); heat precipitation and Ni-NTA

[2] = system: T2, O=[N+]([O-])c1ccc(O[C@@H]2O[C@H](CO)[C@H](O)[C@H](O)[C@H]2O)cc1; assay type: biochemical, Thermus antranikianii; details: 90°C, 20 mM citrate buffer pH 6.5, 0-25 mM substrate, 10 min
T2 construct: recombinant, pQE-80L (His-tag vector) in E. coli BL21 Star(DE3); heat precipitation and Ni-NTA

purified protein [3] = substrate: O=[N+]([O-])c1ccc(O[C@@H]2O[C@H](CO)[C@@H](O)[C@H](O)[C@H]2O)cc1; details: 90°C, 20 mM maleate buffer pH 6.5, 0-10 mM substrate, 10 min
purified protein [4] = substrate: O=[N+]([O-])c1ccc(O[C@@H]2O[C@H](CO)[C@H](O)[C@H](O)[C@H]2O)cc1; details: 90°C, 20 mM maleate buffer pH 6.5, 0-25 mM substrate, 10 min

Molecule | Km [1] | Vmax [1] | kcat [1] | kcat/Km [1] | Km [2] | Vmax [2] | kcat [2] | kcat/Km [2] | Km (purified protein [3]) | Vmax (purified protein [3]) | kcat (purified protein [3]) | kcat/Km (purified protein [3]) | Km (purified protein [4]) | Vmax (purified protein [4]) | kcat (purified protein [4]) | kcat/Km (purified protein [4])
TaGH2 (Thermus antranikianii) | 730 ± 30 µM | 4028 ± 21 µmol/min/mg | 21600 s⁻¹ | 2.95e+07 M⁻¹ s⁻¹ | 2200 ± 20 µM | 2615 ± 3 µmol/min/mg | 14000 s⁻¹ | 6.36e+06 M⁻¹ s⁻¹ | – | – | – | – | – | – | – | –
B1 | – | – | – | – | – | – | – | – | 500 ± 20 µM | 778 µmol/min/mg | 3900 s⁻¹ | 7.8e+06 M⁻¹ s⁻¹ | 3560 ± 70 µM | 1333 ± 11 µmol/min/mg | 6680 s⁻¹ | 1.88e+06 M⁻¹ s⁻¹
